Measurements: US20230331811A1 (CCOA THERAPEUTICS, published 2023)

Tests used:
[1] = biological target: T1, Recombinant human ectodomain αIIbβ3, activated (high-affinity ligand binding conformation) (human, UniProt P08514 32-993; P05106 27-718, carboxyl groups coupled to the DETA silane layer by EDC/sulfo-NHS); assay: flow cytometry dose-response of Alexa488-fibrinogen on activated αIIbβ3 beads, DETA signal subtracted, one site specific binding fit
T1 construct: Also used here for the ELISA plate coated in a buffer with the same cations
T1 sequence (P08514 other isoform, or with tags, fused parts or gaps limits assumed, chain 1 of 2): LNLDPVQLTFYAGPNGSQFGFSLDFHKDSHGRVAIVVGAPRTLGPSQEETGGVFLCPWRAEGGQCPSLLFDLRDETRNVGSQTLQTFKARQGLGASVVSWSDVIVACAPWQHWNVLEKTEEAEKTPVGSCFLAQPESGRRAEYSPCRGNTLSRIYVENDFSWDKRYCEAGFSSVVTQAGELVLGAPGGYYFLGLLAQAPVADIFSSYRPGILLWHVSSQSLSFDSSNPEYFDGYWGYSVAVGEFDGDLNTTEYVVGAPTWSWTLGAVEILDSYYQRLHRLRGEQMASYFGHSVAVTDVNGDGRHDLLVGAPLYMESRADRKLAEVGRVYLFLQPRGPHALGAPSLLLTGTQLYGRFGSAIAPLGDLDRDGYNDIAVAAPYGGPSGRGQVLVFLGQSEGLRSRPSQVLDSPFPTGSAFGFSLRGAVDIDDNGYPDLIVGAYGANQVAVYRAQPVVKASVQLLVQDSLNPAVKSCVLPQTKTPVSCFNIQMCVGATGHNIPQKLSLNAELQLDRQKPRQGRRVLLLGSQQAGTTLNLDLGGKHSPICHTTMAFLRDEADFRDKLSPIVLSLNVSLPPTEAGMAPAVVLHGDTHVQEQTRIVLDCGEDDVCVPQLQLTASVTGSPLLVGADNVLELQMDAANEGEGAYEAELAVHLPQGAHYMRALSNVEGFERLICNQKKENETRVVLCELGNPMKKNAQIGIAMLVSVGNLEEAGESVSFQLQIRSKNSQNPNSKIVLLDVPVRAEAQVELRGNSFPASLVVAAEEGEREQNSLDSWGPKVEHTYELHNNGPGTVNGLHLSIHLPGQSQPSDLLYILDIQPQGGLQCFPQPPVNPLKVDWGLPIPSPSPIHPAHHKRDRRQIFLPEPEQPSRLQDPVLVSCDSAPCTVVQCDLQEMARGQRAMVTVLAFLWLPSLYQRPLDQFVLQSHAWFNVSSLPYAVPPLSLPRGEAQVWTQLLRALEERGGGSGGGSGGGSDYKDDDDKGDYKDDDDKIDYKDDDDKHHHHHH
T1 sequence (P05106 other isoform, or with tags, fused parts or gaps limits assumed, chain 2 of 2): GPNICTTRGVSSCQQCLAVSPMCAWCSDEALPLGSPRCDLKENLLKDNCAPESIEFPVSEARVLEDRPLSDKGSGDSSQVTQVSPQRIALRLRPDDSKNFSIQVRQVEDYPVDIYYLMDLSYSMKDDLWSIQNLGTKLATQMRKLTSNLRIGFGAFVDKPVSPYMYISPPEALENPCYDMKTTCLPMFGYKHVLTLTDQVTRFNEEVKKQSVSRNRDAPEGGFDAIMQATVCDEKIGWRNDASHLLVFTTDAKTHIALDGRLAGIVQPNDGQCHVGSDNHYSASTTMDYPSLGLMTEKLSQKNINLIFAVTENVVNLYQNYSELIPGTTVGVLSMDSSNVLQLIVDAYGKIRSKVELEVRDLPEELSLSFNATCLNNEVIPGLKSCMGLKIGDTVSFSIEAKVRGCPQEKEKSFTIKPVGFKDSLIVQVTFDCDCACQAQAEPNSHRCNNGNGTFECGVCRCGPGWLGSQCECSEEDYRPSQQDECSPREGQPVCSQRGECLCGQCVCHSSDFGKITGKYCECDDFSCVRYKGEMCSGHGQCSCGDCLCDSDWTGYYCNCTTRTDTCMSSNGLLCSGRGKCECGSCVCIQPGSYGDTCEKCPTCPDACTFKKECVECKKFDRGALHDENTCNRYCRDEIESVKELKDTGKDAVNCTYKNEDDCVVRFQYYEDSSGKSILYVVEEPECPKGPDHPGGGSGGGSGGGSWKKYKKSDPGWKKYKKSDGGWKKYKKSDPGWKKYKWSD
Protocol: 3 μL of 1×10⁸ beads/mL were mixed with the desired concentration of fluorescently labelled antibody or ligand to a final volume of 100 μL in PBS and incubated for 1 h. Following incubation, the samples were diluted to a final volume of 1 mL and flow cytometrically analyzed. Samples that were compared with one another were run on the same instrument under the same instrumental conditions (signal gain, flow rate etc.). Any differences in absolute mean fluorescence intensity (MFI) value between different experiments was due to variance between the two.
αIIbβ3 Coupled Bead Flow Cytometry Analysis. […] Ferromagnetic silica particles at each stage of the coating fabrication process were analyzed with flow cytometry for binding to (FIGS. 2A and 2B) PSI E1, and (FIG. 2C to 2F) fibrinogen. […] After the activation step, the beads were analyzed with flow cytometry for binding of Alexa488™ labelled fibrinogen (native αIIbβ3 ligand) and PAC-1 (an antibody specific for the active upright conformation of αIIbβ3) (See Table 2, FIGS. 2G to 2I). […] All analyses conducted as n≥3, data presented as mean±SD, analyzed with a two-tailed t-test, ns=not significant *P<0.05, **P<0.01, ***P<0.001 and ****P<0.0001.

[2] = biological target: T1, Recombinant human ectodomain αIIbβ3, …; assay: sandwich ELISA, αIIbβ3 coated on a 96-well plate in a buffer with Mg2+, Mn2+ and Ca2+ (anti-fibrinogen mouse IgG, anti-mouse IgG-HRP)
Protocol: Fibrinogen ELISA Assay. To ensure similar immobilization levels of recombinant human ectodomain aIIbβ3 between the ELISA plate and integrin coupled magnetic beads, the wells of a 96-well micro plate (Nunc MaxiSorp) were incubated with the same aIIbβ3 concentration per surface area as during the preparation of the magnetic beads, 6.6×10⁴ μg·mL⁻¹·c⁻². Each well was coated with aIIbβ3 or control proteins (BSA and β3−/− platelet lysate) by incubation of 6 μg/μL protein in binding buffer (TRIS buffered saline with 0.05% TWEEN-20 and 1 mM each of MgCl₂, MnCl₂ and CaCl₂)) at 4° C. overnight. Incubation of 3% skim milk (ED Millipore) and 2% TWEEN-20 for 1 hour at 37° C. was used for blocking. The concentration of aIIbβ3 per surface area of bead used when coating SAM coated beads is 6.6×10⁴ μg·mL⁻¹·cm⁻², therefore the wells of 96 well plates used were coated with the same density EDC/NHS quenching achieved by increase pH to 8.6. Bead concentration for synthesis: 6×10⁹ beads·mL⁻¹; Integrin-bead reaction concentration=250 μg·mL⁻¹; Integrin Used=6.6×10⁴ μg·mL⁻¹·cm⁻²; Well Surface Area (50 μL)=0.93 cm²; Concentration/wee for ELISA=6×10⁴ μg·mL⁻¹ (6 μL/well in 50 μL total volume); Stock [αIIbβ3]=5×10⁵ μg·mL⁻¹.
Fibrinogen binding. […] The OPD peroxidase reaction was stopped after 1 hour with 2 M H₂SO₄ and the absorbance was read at 492 nm. […]

[3] = biological target: T1, Recombinant human ectodomain αIIbβ3, …; assay: flow cytometry sandwich assay on αIIbβ3 coupled beads (anti-fibrinogen mouse IgG, FITC-labelled detection antibody), apparent Kd

B1: Fibrinogen (ligand)
alpha: ADSGEGDFLAEGGGVRGPRVVERHQSACKDSDWPFCSDEDWNYKCPSGCRMKGLIDEVNQDFTNRINKLKNSLFEYQKNNKDSHSLTTNIMEILRGDFSSANNRDNTYNRVSEDLRSRIEVLKRKVIEKVQHIQLLQKNVRAQLVDMKRLEVDIDIKIRSCRGSCSRALAREVDLKDYEDQQKQLEQVIAKDLLPSRDRQHLPLIKMKPVPDLVPGNFKSQLQKVPPEWKALTDMPQMRMELERPGGNEITRGGSTSYGTGSETESPRNPSSAGSWNSGSSGPGSTGNRNPGSSGTGGTATWKPGSSGPGSTGSWNSGSSGTGSTGNQNPGSPRPGSTGTWNPGSSERGSAGHWTSESSVSGSTGQWHSESGSFRPDSPGSGNARPNNPDWGTFEEVSGNVSPGTRREYHTEKLVTSKGDKELRTGKEKVTSGSTTTTRRSCSKTVTKTVIGPDGHKEVTKEVVTSEDGSDCPEAMDLGTLSGIGTLDGFRHRHPDEAAFFDTASTGKTFPGFFSPMLGEFVSETESRGSESGIFTNTKESSSHHPGIAEFPSRGKSSSYSKQFTSSTSYNRGDSTFESKSYKMADEAGSEADHEGTHSTKRGHAKSRPVRGIHTSPLGKPSLSP
beta: QGVNDNEEGFFSARGHRPLDKKREEAPSLRPAPPPISGGGYRARPAKAAATQKKVERKAPDAGGCLHADPDLGVLCPTGCQLQEALLQQERPIRNSVDELNNNVEAVSQTSSSSFQYMYLLKDLWQKRQKQVKDNENVVNEYSSELEKHQLYIDETVNSNIPTNLRVLRSILENLRSKIQKLESDVSAQMEYCRTPCTVSCNIPVVSGKECEEIIRKGGETSEMYLIQPDSSVKPYRVYCDMNTENGGWTVIQNRQDGSVDFGRKWDPYKQGFGNVATNTDGKNYCGLPGEYWLGNDKISQLTRMGPTELLIEMEDWKGDKVKAHYGGFTVQNEANKYQISVNKYRGTAGNALMDGASQLMGENRTMTIHNGMFFSTYDRDNDGWLTSDPRKQCSKEDGGGWWYNRCHAANPNGRYYWGGQYTWDMAKHGTDDGVVWMNWKGSWYSMRKMSMKIRPFFPQQ
gamma: YVATRDNCCILDERFGSYCPTTCGIADFLSTYQTKVDKDLQSLEDILHQVENKTSEVKQLIKAIQLTYNPDESSKPNMIDAATLKSRKMLEEIMKYEASILTHDSSIRYLQEIYNSNNQKIVNLKEKVAQLEAQCQEPCKDTVQIHDITGKDCQDIANKGAKQSGLYFIKPLKANQQFLVYCEIDGSGNGWTVFQKRLDGSVDFKKNWIQYKEGFGHLSPTGTTEFWLGNEKIHLISTQSAIPYALRVELEDWNGRTSTADYAMFKVGPEADKYRLTYAYFAGGDAGDAFDGFDFGDDPSDKFFTSHNGMQFSTWDNDNDKFEGNCAEQDGSGWWMNKCHAGHLNGVYYQGGTYSKASTPNGYDNGIIWATWKTRWYSMKKTTMKIIPFNRLTIGEGQQHHLGGAKQAGDV
modifications: Alexa 488 dye on lysines (positions not stated) in the results at the 2nd table and paragraph 103; unlabelled in the sandwich assay of paragraph 112. The native protein is a disulfide-linked dimer of the three chains; each chain is given once.
notes: It calls the protein 'bivalent fibrinogen'; also called Fg; Alexa488 labelled fibrinogen
What does the source list for B1?
Kd [1]: 78 nM; Kd [2]: 2200 nM; Kd [3]: 210 nM
